This is an account of results in patent publication CN111110862A (dated 2020).

Assay [1] concerns the target T1, 鼠CLDN18.1(mCLDN18.1) (mouse, UniProt P56857 1-264).
T1 construct: also called mouse claudin-18 isoform A1.1; mCLDN18.1+cell
T1 sequence: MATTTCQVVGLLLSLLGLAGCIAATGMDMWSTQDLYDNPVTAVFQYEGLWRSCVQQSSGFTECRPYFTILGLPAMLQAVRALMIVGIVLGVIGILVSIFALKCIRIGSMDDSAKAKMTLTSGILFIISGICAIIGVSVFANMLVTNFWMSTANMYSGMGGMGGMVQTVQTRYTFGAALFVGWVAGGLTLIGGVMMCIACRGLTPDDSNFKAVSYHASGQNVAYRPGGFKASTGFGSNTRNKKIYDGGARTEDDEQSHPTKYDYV
As to the kind of experiment: cell ELISA on fixed mCLDN18.1+cell.

The target of assay [2] is T2, 人CLDN18.1(hCLDN18.1) (human, UniProt P56856 1-261).
T2 construct: also called human claudin-18 isoform 1; 密蛋白18.1
T2 sequence: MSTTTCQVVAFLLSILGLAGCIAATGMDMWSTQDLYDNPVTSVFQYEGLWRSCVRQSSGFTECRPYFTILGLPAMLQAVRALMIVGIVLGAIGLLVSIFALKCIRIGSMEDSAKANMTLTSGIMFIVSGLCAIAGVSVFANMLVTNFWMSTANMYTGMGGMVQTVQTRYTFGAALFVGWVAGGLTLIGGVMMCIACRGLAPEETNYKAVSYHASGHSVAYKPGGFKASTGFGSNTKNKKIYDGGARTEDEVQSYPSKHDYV
Briefly: cell ELISA on fixed hCLDN18.1+cell. Background: An ELISA detects its analyte on a solid surface through an enzyme-linked reagent.

For assay [3], the target named is T3, 鼠CLDN18.2(mCLDN18.2) (mouse, UniProt P56857 10-264).
T3 construct: also called mouse claudin-18 isoform A2.1; mCLDN18.2+cell
T3 chain: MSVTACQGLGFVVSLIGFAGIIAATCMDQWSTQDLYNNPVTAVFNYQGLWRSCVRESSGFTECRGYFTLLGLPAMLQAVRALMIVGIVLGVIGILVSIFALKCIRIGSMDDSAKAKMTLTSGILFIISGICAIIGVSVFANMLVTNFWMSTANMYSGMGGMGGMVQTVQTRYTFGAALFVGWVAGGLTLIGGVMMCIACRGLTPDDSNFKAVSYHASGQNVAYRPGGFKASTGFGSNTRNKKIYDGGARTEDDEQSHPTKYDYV
As to the kind of experiment: cell ELISA on fixed mCLDN18.2+cell.

In assay [4] the target is T4, 人CLDN18.2(hCLDN18.2) (human, UniProt P56856 24-261). Briefly: cell-based or functional assay.
In assay [5] the target is T4, 人CLDN18.2(hCLDN18.2). As to the kind of experiment: cell-based or functional assay. The source holds these as a separate data set.

Read-outs that look alike come from different tables or passages of the source.

B1: anti-hCLDN18.2鼠源抗体mab5b (antibody, human IgG1, kappa, V domains shown)
VH: QVQLQQSGAELIGPGTSVKVSCKASGYAFSNYLIEWVKQRPEQGLEWIGLINPGSGGTNYNEKFKGKATLTADKSSSTAYMQLSSLTSDDSAVYFCARVYYGNSFAYWGQGTLVTVSA
VL: DIVMTQSPSSLTVTAGEKVTMSCKSSQSLLNSGNQKNYLTWYQQKPGQPPKLLIYWASTRESGVPDRFTGSGSGTHFTLTISSVQAEDLAVYYCQNDYFYPFTFGSGTKLEKKR
As for B1, the binding result in assay [1] and in assay [2] was “no binding (tested: 200nM)” in each case. The “fold better binding (EC50) than Ref” value in assay [3] was greater than 4 fold. In assay [3], the “fold higher Emax than Ref” value is greater than 1 fold.

B2: Ab24抗体 (antibody, human IgG1, kappa, V domains shown)
VH: QVQLVQSGAEVKKPGSSVKVSCKASGYAFSNYLIEWVRQAPGQGLEWMGLINPGSGGTNYNEKFKGKVTITADKSTSTAYMELSSLRSEDTAVYYCARVYYGNTFAYWGQGTLVTVSS
VL: DIVMTQSPDSLAVSLGERATINCKSSQSLLNTGNNKNYLAWYQQKPGQPPKLLIYWASTRESGVPDRFSGSGSGTDFTLTISSLQAEDVAVYYCQNDYFYPFTFGQGTKLEIKR
Turning to B2, the “CDC EC50 (LDH release, human serum, hCLDN18.2+ target cells)” value (from here on “CDC EC50”) in assay [4] turned out to be 0.255 µg/mL; in assay [5] it was 1.3 µg/mL.

B3: Ab36抗体 (antibody, human IgG1, kappa, V domains shown)
VH: QVQLVQSGAEVKKPGSSVKVSCKASGYAFSNYLIEWVKQAPGQGLEWIGLINPGSGGTNYNEKFKGKATITADKSTSTAYMELSSLRSEDTAVYYCARVYYGNTFAYWGQGTLVTVSS
VL: DIVMTQSPDSLAVSLGERATISCKSSQSLLNTGNNKNYLAWYQQKPGQPPKLLIYWASTRESGVPDRFSGSGSGTDFTLTISSLQAEDVAVYYCQNDYFYPFTFGQGTKLEIKR
For B3, the “CDC EC50” value in assay [5] came out at 1.75 µg/mL.

B4: Ab51抗体 (antibody, human IgG1, kappa, V domains shown)
VH: QVQLVQSGAEVKKPGSSVKVSCKASGYAFSNYLIEWVRQAPGQGLEWMGLINPGSGGTNYNEKFKGRVTITADESTSTAYMELSSLRSEDTAVYYCARVYYGNTFAYWGQGTLVTVSS
VL: DIVMTQSPDSLAVSLGERATINCKSSQSLLNTGNNKNYLAWYQQKPGQPPKLLIYWASTRESGVPDRFSGSGSGTDFTLTISSLQAEDVAVYYCQNDYFYPFTFGQGTKLEIKR
For B4, the “CDC EC50” value in assay [5] was found to be 2.12 µg/mL.
